This is an account of results in US20090035818A1.

For assay [1], the target named is chicken egg yolk antibody (chicken IgY antibody) (chicken). Kind of assay: SPR (Biacore 2000), chicken IgY on CM5 chip, lectin as analyte.
In assay [2] the target is asialotransferrin (human) (UniProt P02787). Nature of the assay: SPR, asialotransferrin on CM5 chip, lectin as analyte. In general terms: SPR reads the build-up and loss of mass on a sensor chip optically.

One may read the Kd as the concentration at which binding is half-saturated. Read a high Kd as weaker binding. By koff is commonly meant the rate constant with which the complex falls apart. A word on the kon: it is the rate constant with which the complex forms. Read a high kon as faster complex formation.

asialotransferrin (human), sequence (P02787 20-698 limits assumed): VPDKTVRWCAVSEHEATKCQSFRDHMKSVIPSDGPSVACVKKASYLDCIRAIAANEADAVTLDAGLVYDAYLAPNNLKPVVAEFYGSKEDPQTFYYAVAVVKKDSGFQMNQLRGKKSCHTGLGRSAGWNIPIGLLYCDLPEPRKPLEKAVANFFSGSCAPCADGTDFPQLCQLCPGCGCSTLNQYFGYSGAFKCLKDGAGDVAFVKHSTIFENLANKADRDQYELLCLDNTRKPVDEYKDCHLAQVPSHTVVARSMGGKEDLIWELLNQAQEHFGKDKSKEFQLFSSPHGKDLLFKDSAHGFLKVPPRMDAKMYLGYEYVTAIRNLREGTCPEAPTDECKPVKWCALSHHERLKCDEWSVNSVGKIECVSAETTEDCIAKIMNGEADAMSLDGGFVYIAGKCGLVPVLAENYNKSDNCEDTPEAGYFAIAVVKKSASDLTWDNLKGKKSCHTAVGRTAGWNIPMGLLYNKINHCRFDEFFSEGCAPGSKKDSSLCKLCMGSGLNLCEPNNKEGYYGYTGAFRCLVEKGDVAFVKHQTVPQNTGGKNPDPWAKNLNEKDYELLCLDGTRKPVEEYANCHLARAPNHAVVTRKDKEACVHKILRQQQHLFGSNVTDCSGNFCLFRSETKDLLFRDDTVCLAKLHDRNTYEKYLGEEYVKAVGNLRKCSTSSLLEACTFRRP

In assay [1], “Solieria robusta-derived lectin Solnin B” returned a Ka of 2.88e+07 M⁻¹, a dissociation constant Kd of 0.0347 µM, an off-rate (koff) of 0.00564 s⁻¹ and an on-rate constant (kon) of 162000 M⁻¹ s⁻¹.
In the case of “Carpopeltis flabellata-derived lectin Carnin”, in assay [2], the Ka came to 1e+08 M⁻¹. Moreover, in assay [1], the Ka was found to be 6.57e+07 M⁻¹, the Kd was determined as 0.0152 µM, the koff was found to be 0.00172 s⁻¹ and the on-rate constant (kon) worked out at 113000 M⁻¹ s⁻¹.
Take “Hypnea japonica-derived lectin Hypnin A-1”: in assay [1], the Ka amounted to 7.1e+07 M⁻¹, the Kd amounted to 0.0141 µM, the koff is 0.000298 s⁻¹ and the kon is 21200 M⁻¹ s⁻¹.
In assay [1], “Canavallia ensiformis-derived lectin Con A (from UniProt P02866 30-281)” displayed a Ka of 1.87e+07 M⁻¹, a Kd of 0.0534 µM, an off-rate constant (koff) of 2.49e-05 s⁻¹ and a kon of 467 M⁻¹ s⁻¹.
